Assay results taken from US20230039401A1 (ATYR PHARMA, published 2023).
One block for each binder: values may come before it.

Legend:
[1] = target: T1, NRP2-Fc (R&D Systems #2215-N2) (human, UniProt O60462 23-864, limits assumed); assay: SPR, MARS Fc-WHEP immobilised, 20 nM NRP2 as analyte
T1 construct: Bought reagent; also called human NRP2; Neuropilin 2; not shown: Fc of the bought fusion

[2] = target: T1, NRP2-Fc (R&D Systems #2215-N2); assay: SPR, WARS WHEP immobilised, 20 nM NRP2 as analyte
[3] = target: T1, NRP2-Fc (R&D Systems #2215-N2); assay: SPR (column: Binding to NRP2 observed by SPR)
[4] = target: T1, NRP2-Fc (R&D Systems #2215-N2); assay: SPR, GARS Fc-WHEP immobilised, 20 nM NRP2 as analyte
[5] = target: T2, NRP2a-GFP fusion protein on HEK293T cells (human, UniProt O60462 23-931); assay: immunofluorescence microscopy, competition on HEK293T cells overexpressing NRP2v2-GFP, GFP Bright gate; VEGF-C titrated, competitor 175 nM Fc-HRS(2-60)/anti-Fc-PE
T2 construct: Transiently transfected HEK293T cells, fixed before staining; also called NRP2v2-GFP; cell-expressed NRP2a; not shown: GFP and any linker of the Origene clone
Description: HEK293T cells previously transfected with NRP2v2-GFP were passed the night before staining to 96 well Greiner Clear flat bottomed Microplates pre-coated with collagen coating solution. Supernatants were removed and cells were washed 1 time with binding buffer. Cells were then fixed with 50 μL of 3.7% methanol-free formaldehyde for 20 minutes at room temperature. Cells were washed 2× with binding buffer and then blocked with 100 μL of blocking buffer for 1 hour at room temperature. The cells were then washed one time with binding buffer and then incubated with 50 μL of staining complex overnight at 4 degrees Celsius. […] The Hoechst stain was replaced with 1×PBS and subsequently read on an IN Cell Analyzer 2200. 20× images were acquired and analyzed using In Cell Analyzer 1000 Workstation software. Segmentation of the cell mask was achieved using the GFP channel, and the average PE signal intensity was determined within this mask above a threshold intensity of 5000 (termed GFP Bright cells).

B1: MARS Fc-WHEP (Fc fusion, UniProt P56192 841-897, looked up)
chain: QIQALMDEVTKQGNIVRELKAQKADKNEVAAEVAKLLDLKKQLAVAEGKPPEAPKGK
notes: domain: WHEP domain; also called Fc domain fused to the WHEP domain of MARS; not shown: Fc domain
- binding result [1]: no binding (tested: 20 nM)

B2: WARS WHEP (other, UniProt P23381 8-64, looked up)
chain: SLLELFNSIATQGELVRSLKAGNASKDEIDSAVKMLVSLKMSYKAAAGEDYKADCPP
notes: domain: WHEP domain; also called WHEP domain of WARS with a V5/His tag; not shown: V5/His tag
- binding result [2]: no binding (tested: 20 nM)

B4: GARS Fc-WHEP (Fc fusion, UniProt P41250 63-119, looked up)
chain: VLAPLRLAVRQQGDLVRKLKEDKAPQVDVDKAVAELKARKRVLEAKELALQPKDDIV
notes: domain: WHEP domain; also called Fc domain fused to the WHEP domain of GARS; not shown: Fc domain
- binding result [4]: no binding (tested: 20 nM)

Continued, values first:

- binding result [3]: no binding
B3: VEGF-A145 (R&D Systems #7626-VE-CF) (ligand, human, UniProt P15692-6 27-171, looked up)
chain: APMAEGGGQNHHEVVKFMDVYQRSYCHPIETLVDIFQEYPDEIEYIFKPSCVPLMRCGGCCNDEGLECVPTEESNITMQIMRIKPHQGQHIGEMSFLQHNKCECRPKKDRARQEKKSVRGKGKGQKRKRKKSRYKSWSVCDKPRR

- binding result [3]: no binding
B5: VEGF-A121 (Peprotech #100-20A) (ligand, human, UniProt P15692-9 27-147, looked up)
chain: APMAEGGGQNHHEVVKFMDVYQRSYCHPIETLVDIFQEYPDEIEYIFKPSCVPLMRCGGCCNDEGLECVPTEESNITMQIMRIKPHQGQHIGEMSFLQHNKCECRPKKDRARQEKCDKPRR

- IC50 (read off the curve) [5]: ~2 nM
B6: Recombinant Human VEGF-C Protein (R&D Systems cat 2179-VC-025/CF) (ligand, UniProt P49767 103-227, looked up)
chain: TEETIKFAAAHYNTEILKSIDNEWRKTQCMPREVCIDVGKEFGVATNTFFKPPCVSVYRCGGCCNSEGLQCMNTSTSYLSKTLFEITVPLSQGPKPVTISFANHTSCRCMSKLDVYRQVHSIIRR
notes: Reagent of the cell immunofluorescence assay; Its catalogue number differs from that of the SPR reagent
